Measurements as given in the RNAGym collection of RNA variant scans (doi:10.7554/elife.80360).

B1: Hammerhead Ribozyme (parent)
chain: ACCGGAUGUGCUUUCCGGUCUGAUGAGUCCGUGAGGACGAAACAG

Variants of: B1
Assay: self-cleavage, relative activity (ratio to wild type); higher = more cleavage; co-transcriptional

Variant | self-cleavage
G18C A42U | 0.325
U12C G33C | 0.817
C16U A34U | 0.755
U12A A42U | 0.313
G36C A42U | 0.286
G5C G39C | 0.312
U7G C20U | 0.447
G5A A34G | 1.2
C20G C29U | 0.336
C15U U28A | 0.516
C15U A37U | 0.953
U28G A34C | 0.411
U28G A34U | 0.475
U24A U28A | 0.729
G10C G39C | 0.324
U19C G45A | 0.384
A6C | 0.722
C3A C30A | 0.557
C3A A42C | 0.313
A6C G17U | 0.37
G35C A37U | 0.517
G4U A42G | 0.336
A26U U32G | 0.466
G8U U32A | 0.996

Variant | self-cleavage
C16G U32G | 0.882
C16A G45C | 0.501
A37U G39A | 0.386
C3A A34U | 0.358
C29A A42C | 0.304
U12G U13C | 0.879
U12G U13G | 0.848
A23C A40G | 0.351
G27C G33U | 0.686
U7C C11G | 1.37
U7C G8U | 1.38
C30U G39U | 0.365
C38G C43G | 0.288
A6G G17A | 0.389
C11U G31C | 0.937
C16A U19G | 0.295
C3U U28G | 0.505
C15A U21C | 0.373
U7A A41G | 0.368
U19C G36C | 0.427
A6C A40C | 0.386
A26U G35U | 0.491
A1C G8A | 0.409
U19G A40G | 0.384

Variant | self-cleavage
A1G C11U | 1.33
C2A A6C | 0.306
C16U C30U | 1.02
U14G G39U | 0.359
G4A A37U | 0.378
C3A U7G | 0.7
A1G G4A | 0.521
G17U G27A | 0.643
C15U A41U | 0.352
U7A G45U | 0.484
U9G A23U | 0.366
U14C G31A | 0.918
G35U G45U | 0.421
G22C G27C | 0.311
U7A U19A | 0.377
G18A U21C | 0.396
U7G G22U | 0.369
C20G G39U | 0.316
G18C G39U | 0.372
G22A G35C | 0.294
C3G A34C | 0.422
A26C G39C | 0.45
A26C G39A | 0.366
A1C U28C | 0.405

Variant | self-cleavage
U14G U19A | 0.383
U12G G36A | 0.518
G35A C43A | 0.322
U19G U21G | 0.328
A34C A37C | 0.426
U19C G27C | 0.308
U7A G17A | 0.498
G8A G18U | 0.635
U7C C30A | 0.736
A6C A41G | 0.374
C2A G4C | 0.346
U9A C16U | 1.11
G8A C30U | 0.826
G4A G22A | 0.281
U7A U14A | 1.15
G17U A41C | 0.365
C16A G18A | 0.351
G22U A34G | 0.308
C2U G4U | 0.335
G8A G39A | 0.417
A1G A6C | 0.838
G18U C43U | 0.402
G4C C38U | 0.643
U14C U21A | 0.347

Variant | self-cleavage
A37G A40U | 0.399
U24C A40U | 0.281
C3U C16G | 0.492
A6G G33U | 0.863
A37U A44C | 0.306
C2G A37C | 0.311
C3G A42U | 0.23
U7G G35U | 0.911
C11U U13C | 0.915
C20U A40G | 0.41
G5C U13A | 1.25
U24G C43U | 0.463
C3U A44G | 1.49
C11G U21G | 0.847
C29U G39C | 0.326
G10A A44G | 1.71
G4U G17U | 0.294
G4U U7C | 0.361
G39C A44U | 0.415
C2G C38U | 0.338
G39A A41G | 0.383
C11U U19A | 0.32
G8A C11U | 0.744
C15G A34C | 0.671

Variant | self-cleavage
C2A A37G | 0.427
A1U C16A | 0.419
C2U A26C | 0.514
G22U A23G | 0.297
C15U G27C | 0.749
C20U G22U | 0.341
G5C C16U | 0.883
U7G G18U | 0.46
A34G A44C | 0.41
A1C G5U | 0.444
U7A U24C | 0.976
G5A G39A | 0.353
G25C C30U | 0.314
G4C G5A | 0.365
U9C A34G | 0.946
U7C A41G | 0.322
A1G G25C | 0.319
U13G A40G | 0.281
U7A G22U | 0.231
U12G G25C | 0.337
U12A G45U | 0.67
C15U C20G | 0.387
A23G G25A | 0.311
U7G C29A | 0.642

Variant | self-cleavage
C11U A42C | 0.388
G35C C38G | 0.376
A34U A42U | 0.306
U13G G17U | 0.78
C3A G27A | 0.365
C11G C20G | 0.261
C16G G18A | 0.533
U13G A44G | 1.7
A23G U28A | 0.329
G5C U7A | 0.874
G4U C20U | 0.364
C11G A23U | 0.41
C15G G25U | 0.315
U9A A40C | 0.49
U9A A40G | 0.349
C16G G33C | 0.956
C29G A37U | 0.587
U12C G36U | 0.498
A1U G35C | 0.47
G25U C30U | 0.259
G36A G45A | 0.444
G10A U21G | 0.462
A40U G45C | 0.458
U14G G31U | 0.51

Variant | self-cleavage
U14G G31C | 0.967
G22C A42C | 0.309
G10U A42G | 0.344
U21G G36U | 0.333
G27C A34G | 0.653
G22C A40G | 0.351
C3G U21G | 0.298
A6G A23C | 0.277
C2A C30A | 0.473
G10C A44G | 1.44
U13A A40G | 0.287
U32G G36U | 0.398
U12G G18U | 0.998
A26G G27A | 0.27
G8A A41G | 0.331
G27A G45A | 0.416
G17U U24A | 0.781
G17U U24G | 0.704
C2U U28A | 0.445
C2U U28G | 0.7
C20G U32C | 0.325
A6U C15G | 0.527
U19C A34U | 0.339
C2U G17A | 0.392

Variant | self-cleavage
U14G A40C | 0.52
G4A G10C | 0.414
A1U A26G | 0.34
U24A C38G | 0.645
C2U A37U | 0.849
A1G U12G | 1.91
G36C A44C | 0.383
G8U G35C | 0.842
C3G A41U | 0.3
A6C U13C | 0.598
U32G A44U | 0.477
C15U G33A | 0.875
G10U U32C | 0.694
G4U A34C | 0.296
U9C G10C | 1.07
C29A A41U | 0.301
C11A A37G | 1.28
G10U G22U | 0.351
C16G G36C | 0.362
G25A A34U | 0.357
A23C G45A | 0.302
G27A A40U | 0.304
G8C C11G | 1.25
U19C C20G | 0.289

Variant | self-cleavage
C11U G35U | 0.846
C3U U12C | 0.99
U21A C30U | 0.57
G27C G31C | 0.666
A26G A41C | 0.338
C16G U24A | 0.751
U14A C38A | 0.54
U21G A42C | 0.393
C15U U21C | 0.556
G5A G31A | 1.65
G4C U14A | 0.512
G31U A42C | 0.363
U24C C43U | 0.404
U7A G18U | 0.569
G25U G27C | 0.285
A26U G27U | 0.315
U12C A41U | 0.288
G22A A42C | 0.335
A6U U9A | 0.617
A6U U9G | 0.641
U12A C15G | 0.85
G17U C38G | 0.539
G4C U13C | 0.856
A23G G27U | 0.282

Variant | self-cleavage
A23G G27A | 0.297
C3U G17U | 0.866
G5U G39U | 0.33
C3U C30A | 1.05
C3U C30G | 0.727
G17U G31A | 0.918
U12G A42G | 0.356
G5U G18U | 0.343
U21C A40G | 0.371
U21C A40C | 0.393
U13G G22U | 0.306
U13G G22C | 0.315
C2U G36C | 0.371
C2U G36A | 0.698
U7G A41G | 0.408
C2U U24G | 1.29
C11G C29A | 0.786
U9G C16G | 0.456
U14G A44U | 0.609
U7C A26U | 0.48
G10A U12G | 1.51
G31U A40C | 0.797
U32C A34G | 0.896
U19G G22A | 0.394

Variant | self-cleavage
C2U U32C | 0.971
G18C G33U | 0.708
C30A G45A | 0.575
C15G U28C | 0.528
U13C G39U | 0.419
C2G A44C | 0.322
A34C G36U | 0.437
U14G C15A | 0.659
G4C G31C | 0.768
C16G A40U | 0.321
A44G | 1.53
C20A G31A | 0.576
U12C U14C | 0.83
A26G A40C | 0.399
C15G C29A | 0.404
U14A G33U | 0.872
G10U A40G | 0.36
G33A A34G | 0.484
G8U C15G | 0.637
C2U C11A | 1.46
U12G G22U | 0.37
C11U G18C | 0.319
A23G G39A | 0.301
A1G G35C | 1.04

Variant | self-cleavage
G5U A6U | 0.63
C38G G45A | 0.461
A6G C30A | 0.48
A26G G35U | 0.283
G17U G39A | 0.328
U7A G36U | 0.585
U12A C16G | 0.764
G35U C43U | 0.43
C3G G10U | 0.638
G27A A44C | 0.373
C11U U28A | 0.768
A1U C20U | 0.333
U9C C11U | 0.889
G18U C29U | 0.547
G18U C29A | 0.538
U7A G25U | 0.281
C20G U28A | 0.268
G8C G18C | 0.564
U13A C15U | 0.907
C16A A41G | 0.352
C15A U32A | 0.782
G10A A40C | 0.676
U9A A34U | 0.941
U21A A26G | 0.346

Variant | self-cleavage
G5A C15A | 1.32
G5U G10A | 1.29
C2A A40G | 0.324
A1U G8C | 0.599
U13C G25U | 0.367
C11U G22U | 0.341
G22U A41U | 0.353
C15A G17U | 0.374
A40C A44G | 0.69
G17A A34U | 0.613
U19G G35C | 0.308
A40G | 0.4
G17C G39C | 0.291
G27U C43G | 0.268
C3U G8C | 0.936
C3U G45C | 0.579
A6C U7G | 0.392
C11A C29A | 0.783
U19C C30U | 0.878
A1U G39C | 0.356
U14C G35U | 0.761
A23U G27C | 0.308
